Measurements published in PMC12176258, “Stabilization of the catalytically active structure of a molybdenum‐dependent formate dehydrogenase depends on a highly conserved lysine residue” (The Febs Journal, 2025).
Changes are numbered by the printed parent chain. Names may count otherwise.

B1: EcFDH-H (Escherichia coli formate dehydrogenase H) (Escherichia coli K-12) (protein)
chain: MKKVVTVCPYCASGCKINLVVDNGKIVRAEAAQGKTNQGTLCLKGYYGWDFINDTQILTPRLKTPMIRRQRGGKLEPVSWDEALNYVAERLSAIKEKYGPDAIQTTGSSRGTGNETNYVMQKFARAVIGTNNVDCCARVUHGPSVAGLHQSVGNGAMSNAINEIDNTDLVFVFGYNPADSHPIVANHVINAKRNGAKIIVCDPRKIETARIADMHIALKNGSNIALLNAMGHVIIEENLYDKAFVASRTEGFEEYRKIVEGYTPESVEDITGVSASEIRQAARMYAQAKSAAILWGMGVTQFYQGVETVRSLTSLAMLTGNLGKPHAGVNPVRGQNNVQGACDMGALPDTYPGYQYVKDPANREKFAKAWGVESLPAHTGYRISELPHRAAHGEVRAAYIMGEDPLQTDAELSAVRKAFEDLELVIVQDIFMTKTASAADVILPSTSWGEHEGVFTAADRGFQRFFKAVEPKWDLKTDWQIISEIATRMGYPMHYNNTQEIWDELRHLCPDFYGATYEKMGELGFIQWPCRDTSDADQGTSYLFKEKFDTPNGLAQFFTCDWVAPIDKLTDEYPMVLSTVREVGHYSCRSMTGNCAALAALADEPGYAQINTEDAKRLGIEDEALVWVHSRKGKIITRAQVSDRPNKGAIYMTYQWWIGACNELVTENLSPITKTPEYKYCAVRVEPIADQRAAEQYVIDEYNKLKTRLREAALA
notes: full-length selenocysteine-containing enzyme, C-terminal His6-tag, from pTrc99a-fdhF in E. coli JG-X (MC4100 delta-fdhF delta-iscR) with helper pSU21-selC; holds Mo(MGD)2 and one [4Fe-4S] cluster
B2: EcFDH-H (Escherichia coli formate dehydrogenase H) (Escherichia coli K-12; K44R) (protein)
chain: B1 chain with K44R
notes: as for B1

Legend:
purified protein [1] = substrate: O=CO; test: purified protein; settings: 2 mM BV2+ fixed, formate 0.125-200 mM, 50 mM phosphate pH 7.5, 25 °C, anaerobic
purified protein [2] = substrate: c1ccc(C[n+]2ccc(-c3cc[n+](Cc4ccccc4)cc3)cc2)cc1; test: purified protein; format: biochemical, Escherichia coli; settings: 10 mM formate fixed, BV2+ 0.125-20 mM, 50 mM phosphate pH 7.5, 25 °C, anaerobic, artificial electron acceptor

Protein	Km (purified protein [1]) [µM]	Km (purified protein [2]) [µM]
B1	1850 ± 270	2750 ± 500
B2	58610 ± 6150	2210 ± 370
